# Target: T1, Ca2+-calmodulin (of the unpublished KD) ( (rat cDNA cloned), UniProt P0DP29 1-149)
# T1 construct: also called Ca2+-CaM
# Test: not stated; unpublished ('A.A. in preparation'); affinity of the Kv7 CaM-binding site for Ca2+-CaM
row,Kd [nM],Binder
1,~25,"Kv7.2 CaM-binding site (construct of the unpublished KD not stated) (domain or fragment, the construct may be that of m1) not shown"
2,~25,Kv7.3 CaM-binding site (construct of the unpublished KD not stated) (domain or fragment) not shown

# — PMC3182250 (PLoS ONE, 2011)
